Laboratory results taken from the supplement of paper PMC10567573.

B1: P2RY14 (parent)
chain: KKIFKSHLKSSRNSTSVKKKSSRN

Variants of: B1
Assay: protein stability index of a GFP-peptide fusion (GPS, HEK-293T) (PSI 1-6); higher = more stable
Conditions: c terminus: a fixed tail appended
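Note: lentivirally expressed fusions sorted by FACS into six bins by GFP to DsRed ratio, PSI derived from sequencing read proportions per bin multiplied by bin number.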

Compared with KKIFKSHLKSSDNSTSVKKKSSRN [R12D], KKIFKSHLKSSENSTSVKKKSSRN [R12E] is lower in protein stability index: 4.43 for the first, 4.08 for the second.

Going from KKIFKSHLKSSFNSTSVKKKSSRN [R12F] to KKIFKSHLKSSGNSTSVKKKSSRN [R12G], the protein stability index rises from 3.83 to 3.87.

Going from KKIFKSHLKSSHNSTSVKKKSSRN [R12H] to KKIFKSHLKSSINSTSVKKKSSRN [R12I], the protein stability index falls from 3.93 to 3.8.

First: KKIFKSHLKSSKNSTSVKKKSSRN [R12K]
Second: KKIFKSHLKSSLNSTSVKKKSSRN [R12L]
The protein stability index of the first is lower: 4.03 for the first, 4.11 for the second.

Compared with KKIFKSHLKSSMNSTSVKKKSSRN [R12M], KKIFKSHLKSSNNSTSVKKKSSRN [R12N] is higher in protein stability index: 4.03 for the first, 4.17 for the second.

Compared with KKIFKSHLKSSPNSTSVKKKSSRN [R12P], KKIFKSHLKSSQNSTSVKKKSSRN [R12Q] is higher in protein stability index: 4.15 for the first, 4.16 for the second.

First: KKIFKSHLKSSSNSTSVKKKSSRN [R12S]
Second: KKIFKSHLKSSTNSTSVKKKSSRN [R12T]
The protein stability index of the first is lower: 3.94 for the first, 4.37 for the second.

Going from KKIFKSHLKSSVNSTSVKKKSSRN [R12V] to KKIFKSHLKSSWNSTSVKKKSSRN [R12W], the protein stability index falls from 4.45 to 3.74.

Compared with KKIFKSHLKSSYNSTSVKKKSSRN [R12Y], KKIFKSHLKSSRASTSVKKKSSRN [N13A] is higher in protein stability index: 3.39 for the first, 4.12 for the second.

Going from KKIFKSHLKSSRCSTSVKKKSSRN [N13C] to KKIFKSHLKSSRDSTSVKKKSSRN [N13D], the protein stability index falls from 3.74 to 3.68.

Going from KKIFKSHLKSSRESTSVKKKSSRN [N13E] to KKIFKSHLKSSRFSTSVKKKSSRN [N13F], the protein stability index rises from 3.55 to 3.77.

Compared with KKIFKSHLKSSRGSTSVKKKSSRN [N13G], KKIFKSHLKSSRHSTSVKKKSSRN [N13H] is lower in protein stability index: 4.11 for the first, 3.52 for the second.

Compared with KKIFKSHLKSSRISTSVKKKSSRN [N13I], KKIFKSHLKSSRKSTSVKKKSSRN [N13K] is lower in protein stability index: 4.15 for the first, 3.95 for the second.

First: KKIFKSHLKSSRLSTSVKKKSSRN [N13L]
Second: KKIFKSHLKSSRMSTSVKKKSSRN [N13M]
The protein stability index of the first is lower: 3.3 for the first, 3.64 for the second.

Going from KKIFKSHLKSSRPSTSVKKKSSRN [N13P] to KKIFKSHLKSSRQSTSVKKKSSRN [N13Q], the protein stability index rises from 3.45 to 4.2.

Compared with KKIFKSHLKSSRRSTSVKKKSSRN [N13R], KKIFKSHLKSSRSSTSVKKKSSRN [N13S] is higher in protein stability index: 4.38 for the first, 4.89 for the second.

Going from KKIFKSHLKSSRTSTSVKKKSSRN [N13T] to KKIFKSHLKSSRVSTSVKKKSSRN [N13V], the protein stability index falls from 4.5 to 4.22.

Going from KKIFKSHLKSSRWSTSVKKKSSRN [N13W] to KKIFKSHLKSSRYSTSVKKKSSRN [N13Y], the protein stability index rises from 3.41 to 3.6.

Compared with KKIFKSHLKSSRNATSVKKKSSRN [S14A], KKIFKSHLKSSRNCTSVKKKSSRN [S14C] is higher in protein stability index: 3.5 for the first, 4.31 for the second.

First: KKIFKSHLKSSRNDTSVKKKSSRN [S14D]
Second: KKIFKSHLKSSRNETSVKKKSSRN [S14E]
The protein stability index of the first is lower: 4.14 for the first, 4.35 for the second.

Compared with KKIFKSHLKSSRNFTSVKKKSSRN [S14F], KKIFKSHLKSSRNGTSVKKKSSRN [S14G] is higher in protein stability index: 3.84 for the first, 4.22 for the second.

Going from KKIFKSHLKSSRNHTSVKKKSSRN [S14H] to KKIFKSHLKSSRNITSVKKKSSRN [S14I], the protein stability index falls from 4.35 to 4.14.

Compared with KKIFKSHLKSSRNKTSVKKKSSRN [S14K], KKIFKSHLKSSRNLTSVKKKSSRN [S14L] is lower in protein stability index: 4.07 for the first, 3.88 for the second.

Compared with KKIFKSHLKSSRNMTSVKKKSSRN [S14M], KKIFKSHLKSSRNNTSVKKKSSRN [S14N] is higher in protein stability index: 3.98 for the first, 4.44 for the second.

Compared with KKIFKSHLKSSRNPTSVKKKSSRN [S14P], KKIFKSHLKSSRNQTSVKKKSSRN [S14Q] is lower in protein stability index: 4.43 for the first, 3.69 for the second.

Going from KKIFKSHLKSSRNRTSVKKKSSRN [S14R] to KKIFKSHLKSSRNTTSVKKKSSRN [S14T], the protein stability index falls from 4.36 to 4.33.

Going from KKIFKSHLKSSRNVTSVKKKSSRN [S14V] to KKIFKSHLKSSRNWTSVKKKSSRN [S14W], the protein stability index falls from 3.84 to 3.44.

First: KKIFKSHLKSSRNYTSVKKKSSRN [S14Y]
Second: KKIFKSHLKSSRNSASVKKKSSRN [T15A]
The protein stability index of the first is lower: 4.1 for the first, 4.27 for the second.

Compared with KKIFKSHLKSSRNSCSVKKKSSRN [T15C], KKIFKSHLKSSRNSDSVKKKSSRN [T15D] is higher in protein stability index: 3.63 for the first, 4.28 for the second.

Going from KKIFKSHLKSSRNSESVKKKSSRN [T15E] to KKIFKSHLKSSRNSFSVKKKSSRN [T15F], the protein stability index falls from 4.35 to 3.52.

First: KKIFKSHLKSSRNSGSVKKKSSRN [T15G]
Second: KKIFKSHLKSSRNSHSVKKKSSRN [T15H]
The protein stability index of the first is higher: 4.31 for the first, 4.01 for the second.

First: KKIFKSHLKSSRNSISVKKKSSRN [T15I]
Second: KKIFKSHLKSSRNSKSVKKKSSRN [T15K]
The protein stability index of the first is higher: 4.04 for the first, 3.84 for the second.

Going from KKIFKSHLKSSRNSLSVKKKSSRN [T15L] to KKIFKSHLKSSRNSMSVKKKSSRN [T15M], the protein stability index rises from 3.98 to 4.01.

Compared with KKIFKSHLKSSRNSNSVKKKSSRN [T15N], KKIFKSHLKSSRNSPSVKKKSSRN [T15P] is lower in protein stability index: 4.45 for the first, 4.28 for the second.

Going from KKIFKSHLKSSRNSQSVKKKSSRN [T15Q] to KKIFKSHLKSSRNSRSVKKKSSRN [T15R], the protein stability index falls from 4.09 to 4.05.

Compared with KKIFKSHLKSSRNSSSVKKKSSRN [T15S], KKIFKSHLKSSRNSVSVKKKSSRN [T15V] is lower in protein stability index: 4.16 for the first, 3.55 for the second.

Going from KKIFKSHLKSSRNSWSVKKKSSRN [T15W] to KKIFKSHLKSSRNSYSVKKKSSRN [T15Y], the protein stability index rises from 3.46 to 3.6.

First: KKIFKSHLKSSRNSTAVKKKSSRN [S16A]
Second: KKIFKSHLKSSRNSTCVKKKSSRN [S16C]
The protein stability index of the first is higher: 4.16 for the first, 3.38 for the second.

Going from KKIFKSHLKSSRNSTDVKKKSSRN [S16D] to KKIFKSHLKSSRNSTEVKKKSSRN [S16E], the protein stability index rises from 4.08 to 4.13.

Going from KKIFKSHLKSSRNSTFVKKKSSRN [S16F] to KKIFKSHLKSSRNSTGVKKKSSRN [S16G], the protein stability index rises from 3.57 to 4.1.

First: KKIFKSHLKSSRNSTHVKKKSSRN [S16H]
Second: KKIFKSHLKSSRNSTIVKKKSSRN [S16I]
The protein stability index of the first is higher: 4.45 for the first, 3.84 for the second.

First: KKIFKSHLKSSRNSTKVKKKSSRN [S16K]
Second: KKIFKSHLKSSRNSTLVKKKSSRN [S16L]
The protein stability index of the first is lower: 4.07 for the first, 4.14 for the second.

Going from KKIFKSHLKSSRNSTMVKKKSSRN [S16M] to KKIFKSHLKSSRNSTNVKKKSSRN [S16N], the protein stability index falls from 4.35 to 4.26.

Compared with KKIFKSHLKSSRNSTPVKKKSSRN [S16P], KKIFKSHLKSSRNSTQVKKKSSRN [S16Q] is higher in protein stability index: 4.26 for the first, 4.48 for the second.

KKIFKSHLKSSRNSTRVKKKSSRN [S16R] and KKIFKSHLKSSRNSTTVKKKSSRN [S16T] are the same in protein stability index: 4.22 for the first, 4.22 for the second.

Going from KKIFKSHLKSSRNSTVVKKKSSRN [S16V] to KKIFKSHLKSSRNSTWVKKKSSRN [S16W], the protein stability index falls from 3.82 to 3.69.

Compared with KKIFKSHLKSSRNSTYVKKKSSRN [S16Y], KKIFKSHLKSSRNSTSAKKKSSRN [V17A] is higher in protein stability index: 4.28 for the first, 4.29 for the second.
